Our source for the stoichiometry N values is publication PMC5314372.

Assay [1] addresses bacteriophage ΦAB6 tailspike protein (bacteriophage ΦAB6). Kind of assay: AUC; sedimentation at 20,000 rpm, Beckman XL-A, An-60 Ti rotor; 25 mM Tris-HCl, 300 mM NaCl, pH 8.0; analysed with SEDFIT.
For assay [2] the target is unchanged. As to the kind of experiment: SEC; analytical gel-filtration column, single peak; calibration curve of log MW versus Ve/V0 with five protein markers.
Assay [3] has as its target N-terminally-truncated ΦAB6 tailspike protein (residues 136-699) (bacteriophage ΦAB6). As to the kind of experiment: AUC; sedimentation at 20,000 rpm, Beckman XL-A, An-60 Ti rotor; 25 mM Tris-HCl, 300 mM NaCl, pH 8.0; analysed with SEDFIT.
Assay [4] shares this target. As to the kind of experiment: crystal structure; hanging-drop vapor diffusion at 20 °C; 1.0 M sodium malonate pH 7.0 or 0.9 M sodium citrate, 0.1 M sodium cacodylate pH 6.5; space group C2, one trimer in the asymmetric unit; free form and forms soaked with Ab-54149 polysaccharide.

Usually stoichiometry N stands for the number of molecules, sites or subunits per partner or assembly. For “bacteriophage ΦAB6 tailspike protein (enzyme)”, the stoichiometry N in assay [1] and in assay [2] was 3 throughout.

For the substance “N-terminally-truncated ΦAB6 tailspike protein (residues 136-699) (domain or fragment)”, the stoichiometry N in assay [3] and in assay [4] was 3 each time.
